The record followed here is US20140322204A1.

Assay [1] concerns the target E1E2 of HCV genotype 3a isolate UKN3A13.6 (Hepatitis C virus genotype 3a). Kind of assay: cell-based or functional assay.
Assay [2] addresses E1E2 of HCV genotype 5 isolate UKN5.15.11 (Hepatitis C virus genotype 5). The assay can be described thus: cell-based or functional assay.
For assay [3], the target named is H77 E1E2 mutant G418A (Hepatitis C virus genotype 1a strain H77) (UniProt P27958). The assay can be described thus: GNA capture EIA of E1E2 from HEK 293T cells.
For assay [4], the target named is H77 E1E2 mutant L413A (Hepatitis C virus genotype 1a strain H77) (UniProt P27958). Kind of assay: GNA capture EIA of E1E2 from HEK 293T cells.
In assay [5] the target is H77 E1E2 mutant N415A (Hepatitis C virus genotype 1a strain H77) (UniProt P27958). The assay can be described thus: GNA capture EIA of E1E2 from HEK 293T cells.
Assay [6] concerns the target H77 E1E2 mutant Q412A (Hepatitis C virus genotype 1a strain H77) (UniProt P27958). Kind of assay: GNA capture EIA of E1E2 from HEK 293T cells.
Assay [7] addresses H77 E1E2 mutant W420A (Hepatitis C virus genotype 1a strain H77) (UniProt P27958). Kind of assay: GNA capture EIA of E1E2 from HEK 293T cells.
The target in assay [8] is 412-423 branched peptide (UniProt P27958). Kind of assay: antibody titration on the branched peptide (FIG. 10).

As for monoclonal antibody AP33, the IC50 of HCVpp neutralisation (ug/ml (printed p.g/ml)) in assay [1] was 22; in assay [2], 0.6. Besides, the reduction of binding compared to wild type in assay [3], in assay [4], in assay [5] and in assay [7] was over 75% each time. Moreover, the enhancement of binding compared to wild type in assay [6] came to 50%. For the same substance, in assay [8], the fold lower concentration required to obtain 50% binding, against MAb 3/11 is over 10 fold.
